From patent publication US20060270591A1, “Androgen receptor coregulators” (priority 2002, published 2006)
Values belong to the molecule of their own block, whether it stands above or below them.

Columns and labels:
Format in all cases: cell-based, human
[1] = system: AR; test: AR transactivation reporter assay (CAT/luciferase) (Example 3); details: for effect of ARA70N construct on AR transactivation: COS-1 cells, 10 nM T, MMTV-LUC
Procedure: 21. […] Further adding GAL-DBD (lane 1 and 2) or GAL-DBD-ARA70N with wild type (lane 3 and 4) or mutant (lane 5-8) FXXLF motifs to the cells. (B) Effect of wild type and mutant FXXLF motifs ARA70N on AR transactivation in COS-1 cells. […] 0.5 ng SV40-Renila Luciferase was used as an internal control. Relative luciferase activity was calculated by dual luciferase system.
411. Human prostate cancer DU145 and PC-3 cells were maintained in Dulbecco's Minimum Essential Medium (DMEM) containing penicillin (25 U/ml), streptomycin (25 μg/ml), and 5% fetal calf serum (FCS). Human LNCaP cells were maintained in RPMI containing penicillin (25 U/ml), streptomycin (25 μg/ml), and 10% FCS. Transfections were performed using the calcium phosphate precipitation method, as previously described (Dynlacht et al. (1991) Cell 66, 563-576). Briefly, 4×10^5 cells were plated on 60-mm dishes 24 hours before transfection, and the medium was changed to DMEM with 5% charcoal-dextran stripped FCS (CS-FBS) one hour before transfection. Transfection medium contained a constant amount of reporter plasmid and indicated amounts of pSG5-receptor, ARA70, or pCMX-GAL fusion construct using pSG5 as a carrier to provide equal amounts of transfected DNA. […] After another 24 hours, the cells were harvested for chloramphenicol transferase (CAT) or luciferase assays. At least three independent experiments were carried out in each case. Superfect (Qiagen) was used for transfection in LNCaP cells. The transfection conditions followed the manufacturer's protocol. Cell extracts were prepared and assayed for CAT or luciferase activity (Promega) and normalized against β-galactosidase or Renilla luciferase activity as indicated. All data were the mean±SD results from three to six independent experiments.
Target sequence in this assay (P10275 whole entry, the tested form may be a part): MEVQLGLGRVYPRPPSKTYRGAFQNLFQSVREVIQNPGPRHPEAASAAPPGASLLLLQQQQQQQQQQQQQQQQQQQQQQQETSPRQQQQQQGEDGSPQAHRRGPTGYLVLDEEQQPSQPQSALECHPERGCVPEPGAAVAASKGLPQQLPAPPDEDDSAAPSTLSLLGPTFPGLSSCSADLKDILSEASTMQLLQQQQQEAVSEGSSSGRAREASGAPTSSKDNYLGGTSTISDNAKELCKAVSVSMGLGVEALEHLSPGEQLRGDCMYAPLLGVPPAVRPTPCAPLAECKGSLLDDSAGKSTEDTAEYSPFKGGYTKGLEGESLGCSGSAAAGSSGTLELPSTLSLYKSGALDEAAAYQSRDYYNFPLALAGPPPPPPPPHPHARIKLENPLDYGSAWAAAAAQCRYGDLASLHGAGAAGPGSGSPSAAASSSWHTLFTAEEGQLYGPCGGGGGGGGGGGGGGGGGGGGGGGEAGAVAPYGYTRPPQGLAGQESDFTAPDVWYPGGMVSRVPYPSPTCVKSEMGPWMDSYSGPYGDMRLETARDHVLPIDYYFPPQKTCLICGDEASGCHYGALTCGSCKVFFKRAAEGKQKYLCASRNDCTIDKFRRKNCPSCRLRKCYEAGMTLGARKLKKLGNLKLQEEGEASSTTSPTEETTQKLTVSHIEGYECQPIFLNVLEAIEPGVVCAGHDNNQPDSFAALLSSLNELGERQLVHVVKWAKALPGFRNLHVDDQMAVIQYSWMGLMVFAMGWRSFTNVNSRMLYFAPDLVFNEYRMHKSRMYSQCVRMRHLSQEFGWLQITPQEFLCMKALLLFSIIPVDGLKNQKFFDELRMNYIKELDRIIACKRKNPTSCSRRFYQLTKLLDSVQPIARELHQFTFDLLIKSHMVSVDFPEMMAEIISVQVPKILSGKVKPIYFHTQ

[2] = system: AR; test: AR transactivation assay, MMTV-CAT reporter, transient transfection (Example 1); details: for AR transcription activity with cotransfected coactivator: wild type AR
Procedure: Human prostate cancer DU145 or PC3 cells, or human lung carcinoma cells NCI H1299 were grown in Dulbecco's minimal essential medium (DMEM) containing penicillin (25 U/ml), streptomycin (25˜g/ml), and 5% fetal calf serum (FCS). One hour before transfection, the medium was changed to DMEM with 5% charcoal-stripped FCS. […] A β-galactosidase expression plasmid, pCMV-β-gal, was used as an internal control for transfection efficiency.
The medium was changed 24 hr posttransfection and the cells treated with either steroid hormones or hydroxyflutamide, and cultured for an additional 24 hr. Cells were harvested and assayed for CAT activity after the cell lysates were normalized by using β-galactosidaseas an internal control. Chloramphenicol acetyltransferase (CA) activity was visualized by PhosphorImager (Molecular Dynamics) and quantitated by ImageQuant software (Molecular Dynamics).

[3] = system: AR; test: Mammalian two-hybrid CAT assay, interaction with AR in DU145 cells (Example 1)
Excerpt: 368. The mammalian two-hybrid system employed was essentially the protocol of Clontech (California), with the following modifications. In order to obtain better expression, the GAL4 DBD (a.a. 1-147) was fused to pSGS under the control of an SV40 promoter, and named pGALO.
369. The hinge and LBD of wtAR were then inserted into pGALO. Similarly, the VPI6 activation domain was fused to pCMX under the control of a CMV promoter, and designated pCMX-VP16 (provided by Dr. R. M. Evan).
Target sequence in this assay (P10275 669-900 limits assumed): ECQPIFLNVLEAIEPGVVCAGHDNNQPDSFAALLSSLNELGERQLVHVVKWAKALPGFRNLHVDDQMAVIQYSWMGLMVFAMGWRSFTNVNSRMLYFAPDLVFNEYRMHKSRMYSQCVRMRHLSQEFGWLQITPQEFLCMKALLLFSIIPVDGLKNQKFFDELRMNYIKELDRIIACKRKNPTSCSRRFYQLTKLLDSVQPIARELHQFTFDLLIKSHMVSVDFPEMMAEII

[4] = system: PSA; test: PSA northern and western blot in LNCaP cells (Example 3); details: 1 nM DHT
Excerpt: 20. […] (A) ARA70-N2 can serve as a dominant-negative to inhibit coregulator enhanced AR activity in DU145 cells. The pCMV-β-gal construct was used as an internal control, and the relative CAT activity was normalized by the β-gal activity. Data represent the mean±S.D. of four independent experiments. (B) ARA70-N2 can serve as a dominant-negative repressor to compete with the function of endogenous coregulators and inhibit AR transactivation in LNCaP cells. (C) ARA70-N2 can serve as a dominant-negative repressor to inhibit the expression of PSA mRNA in LNCaP cells. Human prostate cancer LNCaP cells were transfected with 4 and 8 μg of ARA70-N2 for 3 hours. […] The blot containing 20 μg total RNA in each lane was hybridized with a PSA specific cDNA probe. […] (D) ARA70-N2 can inhibit PSA protein expression in a dominant-negative manner. 4×10^6 LNCaP cells were plated on 100-mm dishes 24 hours before transfection. […] The blot containing 70 μg total cell lysate in each lane was hybridized with a PSA specific antibody. The same membrane was hybridized with a specific antibody for β-actin for equal protein loading.

effect of ARA70N construct on AR transactivation [1]: marginal induction effect
B1: pSG5-ARA70N-AXXLF: ARA70N with FXXLF motif mutated to AXXLF (protein)
chain: MNTFQDQSGSSSNREPLLRCSDARRDLELAIGGVLRAEQQIKDNLREVKAQIHSCISRHLECLRSREVWLYEQVDLIYQLKEETLQQQAQQLYSLLGQFNCLTHQLECTQNKDLANQVSVCLERLGSLTLKPEDSTVLLFEADTITLRQTITTFGSLKTIQIPEHLMAHASSANIGPFLEKRGCISMPEQKSASGIVAVPFSEWLLGSKPASGYQAPYIPSTDPQDWLTQKQTLENSQTSSRACNFFNNVGGNLKGLENWLLKSEKSSYQKCNSHSTTSSFSIEMEKVGDQELPDQDEMDLSDWLVTPQESHKLRKPENGSRETSEKFKLLFQSYNVNDWLVKTDSCTNCQGNQPKGVEIENLGNLKCLNDHLEAKKPLSTPSMVTEDWLVQNHQDPCKVE

effect of ARA70N construct on AR transactivation [1]: marginal induction effect
B2: pSG5-ARA70N-FXXAA: ARA70N with FXXLF motif mutated to FXXAA (protein)
chain: B1 chain

B3: Rb: retinoblastoma protein (protein, UniProt P06400 2-928, looked up)
Retinoblastoma-associated …: PPKTPRKTAATAAAAAAEPPAPPPPPPPEEDPEQDSGPEDLPLVRLEFEETEEPDFTALCQKLKIPDHVRERAWLTWEKVSSVDGVLGGYIQKKKELWGICIFIAAVDLDEMSFTFTELQKNIEISVHKFFNLLKEIDTSTKVDNAMSRLLKKYDVLFALFSKLERTCELIYLTQPSSSISTEINSALVLKVSWITFLLAKGEVLQMEDDLVISFQLMLCVLDYFIKLSPPMLLKEPYKTAVIPINGSPRTPRRGQNRSARIAKQLENDTRIIEVLCKEHECNIDEVKNVYFKNFIPFMNSLGLVTSNGLPEVENLSKRYEEIYLKNKDLDARLFLDHDKTLQTDSIDSFETQRTPRKSNLDEEVNVIPPHTPVRTVMNTIQQLMMILNSASDQPSENLISYFNNCTVNPKESILKRVKDIGYIFKEKFAKAVGQGCVEIGSQRYKLGVRLYYRVMESMLKSEEERLSIQNFSKLLNDNIFHMSLLACALEVVMATYSRSTSQNLDSGTDLSFPWILNVLNLKAFDFYKVIESFIKAEGNLTREMIKHLERCEHRIMESLAWLSDSPLFDLIKQSKDREGPTDHLESACPLNLPLQNNHTAADMYLSPVRSPKKKGSTTRVNSTANAETQATSAFQTQKPLKSTSLSLFYKKVYRLAYLRLNTLCERLLSEHPELEHIIWTLFQHTLQNEYELMRDRHLDQIMMCSMYGICKVKNIDLKFKIIVTAYKDLPHAVQETFKRVLIKEEEYDSIIVFYNSVFMQRLKTNILQYASTRPPTLSPIPHIPRSPYKFPSSPLRIPGGNIYISPLKSPYKISEGLPTPTKMTPRSRILVSIGESFGTSEKFQKINQMVCNSDRVLKRSAEGSNPPKPLKKLRFDIEGSDEADGSKHLPGESKFQQKLAEMTSTRTRMQKQKMNDSMDTSNKEEK
AR transcription activity with cotransfected coactivator ([2]; DU145 cells, 1 nM DHT): 21 fold
AR transcription activity with cotransfected coactivator ([2]; DU145 cells, 10 nM E2): 12 fold
induced CAT activity in mammalian two-hybrid assay [3]: 3 fold

B4: ARA55251-444: C-terminus of ARA55 (a.a. 251-444 of SEQ ID NO:4) (protein)
chain: EKDGAPFCPECYFERFSPRCGFCNQPIRHKMVTALGTHWHPEHFCCVSCGEPFGDEGFHEREGRPYCRRDFLQLFAPRCQGCQGPILDNYISALSLLWHPDCFVCRECFAPFSGGSFFEHEGRPLCENHFHARRGSLCPTCGLPVTGRCVSALGRRFHPDHFACTFCLRPLTKGSFQERAGKPYCQPCFLKLFG
modifications: Homo sapien
effect on AR transcription activity ([2]; PC3 cells, endogenous ARA55, 10 nM DHT): dramatically reduced AR transcription activity

B5: ARA70-N2: ARA70 region between amino acids 176-401, dominant-negative repressor (protein, UniProt Q13772 176-401, looked up, fragment)
chain: GPFLEKRGCISMPEQKSASGIVAVPFSEWLLGSKPASGYQAPYIPSTDPQDWLTQKQTLENSQTSSRACNFFNNVGGNLKGLENWLLKSEKSSYQKCNSHSTTSSFSIEMEKVGDQELPDQDEMDLSDWLVTPQESHKLRKPENGSRETSEKFKLLFQSYNVNDWLVKTDSCTNCQGNQPKGVEIENLGNLKCLNDHLEAKKPLSTPSMVTEDWLVQNHQDPCKVE
effect on ARA70N-enhanced AR transactivation ([1]; DU145 cells): inhibit ARA70N-enhanced AR transactivation
effect on PSA mRNA and protein expression [4]: repressed PSA mRNA

B6: ARA55: AR coactivator, 444 aa polypeptide with high homology to mouse hic5 (protein)
chain: ANFNQSGNIADSSLSFTFTNSSNGPNLITTQTNSQALSQPIASSNVHDNFMNNEITASKIDDGNNSKPLSPGWTDQTAYNAFGITTGMFNTTTMDDVYNYLFDDEDTPPNPKKEMPRSGAPKERPAEPLTPPPSYGHQPTGQSGESSGASGDKDHLYSTVCKPRSPKPAAPAAPPFSSSSGVLGTGLCELDRLLQELNATQFNITDEIMSQFPSSKVASGEQKEDQSEDKKRPSLPSSPSPGLPKASATSATLELDRLMASLPDFRVQNHLPASGPTQPPVVSSTNEGSPSPPEPTAKGSLDTMLGLLQSDLSRRGVPTQAKGLCGSCNKPIAGQVVTALGRAWHPEHFVCGGCSTALGGSSFFEKDGAPFCPECYFERFSPRCGFCNQPIRHKMVTALGTHWHPEHFCCVSCGEPFGDEGFHEREGRPYCRRDFLQLFAPRCQGCQGPILDNYISALSLLWHPDCFVCRECFAPFSGGSFFEHEGRPLCENHFHARRGSLCPTCGLPVTGRCVSALGRRFHPDHFACTFCLRPLTKGSFQERAGKPYCQPCFLKLFG
enhancement of transactivation of wtAR, mARt877s and mARe708k ([2]; DHT 10^−11 to 10^−8 M, all three receptors): 4-8 fold
further increase of the DHT induction ([2]; DU145 cells, 10 nM DHT, AR:ARA55 up to 1:4.5): 5.3 fold
AR transcription activity with coactivator ([2]; DU145 cells, 10 nM DHT, with ARA55): 22.8 fold
increase of AR transcription activity upon transfection with exogenous ARA55 ([2]; PC3 cells): 4 fold
